# Measurements reported in patent publication US20170246252A1.
# Target: endogenous mIL-10 receptors (R1 and R2) on MC/9 mouse mast cells (mouse) (UniProt Q61727)
# Assay: cell-based or functional assay
# UniProt Q61727, sequence (Q61727 17-575, chain 1 of 2): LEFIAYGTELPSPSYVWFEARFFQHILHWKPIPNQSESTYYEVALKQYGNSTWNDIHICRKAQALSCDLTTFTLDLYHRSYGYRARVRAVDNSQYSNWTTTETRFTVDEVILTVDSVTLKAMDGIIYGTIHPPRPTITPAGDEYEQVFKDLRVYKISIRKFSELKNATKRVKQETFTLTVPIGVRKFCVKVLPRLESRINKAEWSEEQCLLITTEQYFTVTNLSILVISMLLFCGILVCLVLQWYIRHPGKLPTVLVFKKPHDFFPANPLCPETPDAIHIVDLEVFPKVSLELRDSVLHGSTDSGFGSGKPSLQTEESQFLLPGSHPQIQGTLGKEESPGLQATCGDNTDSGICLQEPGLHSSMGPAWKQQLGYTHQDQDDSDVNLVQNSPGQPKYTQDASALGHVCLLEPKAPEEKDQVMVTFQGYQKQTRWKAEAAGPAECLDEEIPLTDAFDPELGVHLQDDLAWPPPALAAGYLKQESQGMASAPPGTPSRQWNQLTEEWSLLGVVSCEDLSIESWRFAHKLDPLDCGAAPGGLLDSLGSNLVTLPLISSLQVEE
# UniProt Q61727, sequence (Q61190 20-349, chain 2 of 2, further chain): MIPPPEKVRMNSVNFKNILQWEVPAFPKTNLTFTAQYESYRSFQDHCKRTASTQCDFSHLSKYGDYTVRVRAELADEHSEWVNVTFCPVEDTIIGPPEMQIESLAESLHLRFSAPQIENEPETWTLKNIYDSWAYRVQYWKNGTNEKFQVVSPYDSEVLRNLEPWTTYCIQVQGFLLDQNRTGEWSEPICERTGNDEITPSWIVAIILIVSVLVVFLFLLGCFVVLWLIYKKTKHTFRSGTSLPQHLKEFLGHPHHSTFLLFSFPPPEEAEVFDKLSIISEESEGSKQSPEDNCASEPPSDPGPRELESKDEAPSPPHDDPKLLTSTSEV
Substance,"EC50 (ng/mL) in MC/9 Assay (proliferation with mIL-4 co-stimulation, Alamar Blue)",specific activity in the MC/9 bioassay relative to mIL-10
Murine IL-10 (from UniProt P18893 19-178) (ligand),0.571 ng/mL,
PEG-mIL-10 (from UniProt P18893 19-178) (ligand),4.04 ng/mL,7 fold lower
